Patent US20190055314A1 (ADAGENE, published 2019)
Where a chain is given by its changes, count along the chain named.

T1: GITR overexpressed on HEK293F cells (UniProt Q9Y5U5 26-241, limits assumed)
T1 construct: whole, on cells
T1 sequence (looked up): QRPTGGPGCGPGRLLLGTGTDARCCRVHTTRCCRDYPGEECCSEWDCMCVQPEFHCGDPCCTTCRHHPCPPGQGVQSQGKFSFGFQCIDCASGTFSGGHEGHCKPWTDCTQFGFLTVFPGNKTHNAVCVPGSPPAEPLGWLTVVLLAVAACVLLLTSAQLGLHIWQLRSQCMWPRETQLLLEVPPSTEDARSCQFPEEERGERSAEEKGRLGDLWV

T2: CD27 overexpressed on HEK293F cells (UniProt P26842 20-260, limits assumed)
T2 construct: whole, on cells
T2 sequence (looked up): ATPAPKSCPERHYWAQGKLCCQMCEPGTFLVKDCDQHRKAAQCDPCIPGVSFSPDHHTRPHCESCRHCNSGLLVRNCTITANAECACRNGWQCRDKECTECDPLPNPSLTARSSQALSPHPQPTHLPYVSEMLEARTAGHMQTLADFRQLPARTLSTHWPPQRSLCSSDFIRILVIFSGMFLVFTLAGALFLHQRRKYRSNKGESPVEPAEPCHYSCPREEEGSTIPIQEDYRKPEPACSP

T3: OX40 overexpressed on HEK293F cells (UniProt P43489 29-277, limits assumed)
T3 construct: whole, on cells
T3 sequence (looked up): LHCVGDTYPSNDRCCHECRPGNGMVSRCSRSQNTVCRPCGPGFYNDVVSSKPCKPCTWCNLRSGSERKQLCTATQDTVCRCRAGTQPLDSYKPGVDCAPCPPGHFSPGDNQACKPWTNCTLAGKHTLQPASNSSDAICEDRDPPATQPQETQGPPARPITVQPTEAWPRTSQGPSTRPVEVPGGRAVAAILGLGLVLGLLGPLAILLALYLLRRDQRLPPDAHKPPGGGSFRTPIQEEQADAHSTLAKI

T4: full-length monkey CD137 on the cell surface (cynomolgus monkey, UniProt Q07011 24-179 (human entry))
T4 chain: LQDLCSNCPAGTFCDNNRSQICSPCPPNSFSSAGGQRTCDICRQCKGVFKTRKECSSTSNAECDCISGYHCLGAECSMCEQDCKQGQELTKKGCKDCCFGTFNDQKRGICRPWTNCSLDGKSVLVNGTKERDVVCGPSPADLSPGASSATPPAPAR

T5: CD120a
T5 chain: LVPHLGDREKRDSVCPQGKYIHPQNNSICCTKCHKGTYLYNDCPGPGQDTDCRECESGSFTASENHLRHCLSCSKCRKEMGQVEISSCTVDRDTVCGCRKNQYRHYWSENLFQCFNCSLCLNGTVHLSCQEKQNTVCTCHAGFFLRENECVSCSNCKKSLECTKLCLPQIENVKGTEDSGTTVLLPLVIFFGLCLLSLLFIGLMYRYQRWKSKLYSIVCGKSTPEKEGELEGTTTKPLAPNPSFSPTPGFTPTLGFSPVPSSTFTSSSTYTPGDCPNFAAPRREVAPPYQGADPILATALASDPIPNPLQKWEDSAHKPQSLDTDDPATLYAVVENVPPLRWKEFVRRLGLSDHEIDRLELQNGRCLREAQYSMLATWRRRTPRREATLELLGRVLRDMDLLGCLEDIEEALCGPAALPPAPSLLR

T6: CD95
T6 chain: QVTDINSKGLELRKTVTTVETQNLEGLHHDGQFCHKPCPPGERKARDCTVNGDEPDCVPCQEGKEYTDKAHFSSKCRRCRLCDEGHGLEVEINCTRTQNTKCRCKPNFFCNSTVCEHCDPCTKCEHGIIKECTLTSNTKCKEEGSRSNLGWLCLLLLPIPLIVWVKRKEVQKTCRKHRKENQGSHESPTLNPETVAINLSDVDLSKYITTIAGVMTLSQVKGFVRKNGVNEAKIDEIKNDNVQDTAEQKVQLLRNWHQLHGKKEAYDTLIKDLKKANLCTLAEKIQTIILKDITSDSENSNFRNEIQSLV

T7: mouse CD137 fused with human FC fragment (mouse, UniProt P20334 24-178, limits assumed)
T7 construct: also called mouse CD137-Fc; not shown: human Fc fragment
T7 sequence: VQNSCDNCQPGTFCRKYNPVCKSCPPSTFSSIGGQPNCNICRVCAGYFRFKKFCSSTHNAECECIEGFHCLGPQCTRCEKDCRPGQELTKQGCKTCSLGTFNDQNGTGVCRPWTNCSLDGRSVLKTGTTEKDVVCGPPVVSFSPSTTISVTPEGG

T8: full-length mouse CD137 on the cell surface (mouse, UniProt P20334 24-178)
T8 sequence: T7 sequence

B1: AG10059 (antibody, human IgG4 S228P, kappa, V domains shown)
VH: EVQLVESGGGLVQPGGSLRLSCAASGYSITSGHYWAWIRQAPGKGLEWVSSISGYGSTTYYADSVKGRFTISRDNSKNTLYLQLNSLRAEDTAVYYCARGGSDAVLGDWFAYWGQGTLVTVSS
VL: DIQLTQSPSSLSASVGDRVTITCRASQGIGSFLAWYQQKPGKAPKLLIYDASNLETGVPSRFSGSGSGTDFTLTISSLQPEDFATYYCQQGYYLWTFGQGTKVEIKR
B2: AG10058 (antibody, human IgG4 S228P, kappa, V domains shown)
VH: EVQLVESGGGLVQPGGSLRLSCAASGFSLSTSGVGVGWIRQAPGKGLEWLALIDWDDDKYYSPSLKSRLTISRDNSKNTLYLQLNSLRAEDTAVYYCARGGSDTVLGDWFAYWGQGTLVTVSS
VL: B1 VL with G28S, I29V, G30S, S31P, F32Y, N53S, T56S, Y93S

Assays:
[1] = molecular target: T1, GITR overexpressed on HEK293F cells; test: flow cytometry, HEK293F cells expressing the receptor, antibody 100 nM [Cont.]
[2] = molecular target: T9, CD40 overexpressed on HEK293F cells (UniProt P25942 21-277, limits assumed); test: as above
T9 construct: whole, on cells

[3] = molecular target: T2, CD27 overexpressed on HEK293F cells; test: as above
[4] = molecular target: T3, OX40 overexpressed on HEK293F cells; test: as above
[5] = molecular target: T10, human CD137-His6 (Sino Biological #10041-H08H) (human, UniProt Q07011 24-186); test: SPR Biacore, IgG captured; Table 3 run, IgG captured by anti-human Fc; Table 1b gives 3.8E-08 M from a separate measurement
T10 construct: Bought; also called human CD137 protein; not shown: His6 tag

[6] = molecular target: T4, full-length monkey CD137 on the cell …; test: flow cytometry, HEK293F cells expressing CD137 or mutant [Cont.]
CD120a [7] = molecular target: T5, CD120a; test: flow cytometry, HEK293F cells expressing the receptor [Cont.]
CD95 [8] = molecular target: T6, CD95; test: as above
Hu_F36A = molecular target: T11, Hu_F36A (human, UniProt Q07011 18-255); test: flow cytometry, HEK293F
T11 construct: On HEK293F; also called human CD137 F36A

Hu_F53A = molecular target: T12, Hu_F53A (human, UniProt Q07011 18-255); test: flow cytometry, HEK293F
T12 construct: On HEK293F; also called human CD137 F53A

[9] = molecular target: T7, mouse CD137 fused with human FC fragment; test: ELISA, coated CD137-Fc
[10] = molecular target: T8, full-length mouse CD137 on the cell …; test: cell-based or functional assay
CD120a [11] = molecular target: T5, CD120a; test: flow cytometry, HEK293F cells expressing the receptor, antibody 100 nM [Cont.]
CD95 [12] = molecular target: T6, CD95; test: as above

T12 sequence (Q07011 18-255 F53A): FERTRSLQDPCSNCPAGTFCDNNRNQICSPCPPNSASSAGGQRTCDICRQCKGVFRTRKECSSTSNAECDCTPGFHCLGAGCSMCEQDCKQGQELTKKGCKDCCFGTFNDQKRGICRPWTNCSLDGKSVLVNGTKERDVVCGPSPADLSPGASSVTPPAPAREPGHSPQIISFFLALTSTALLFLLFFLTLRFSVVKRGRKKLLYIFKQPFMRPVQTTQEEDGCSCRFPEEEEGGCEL
T11 sequence (Q07011 18-255 F36A): as the sequence (Q07011 18-255 F53A) above, with F19A, A36F counted along it
T9 sequence (P25942 21-277 limits assumed): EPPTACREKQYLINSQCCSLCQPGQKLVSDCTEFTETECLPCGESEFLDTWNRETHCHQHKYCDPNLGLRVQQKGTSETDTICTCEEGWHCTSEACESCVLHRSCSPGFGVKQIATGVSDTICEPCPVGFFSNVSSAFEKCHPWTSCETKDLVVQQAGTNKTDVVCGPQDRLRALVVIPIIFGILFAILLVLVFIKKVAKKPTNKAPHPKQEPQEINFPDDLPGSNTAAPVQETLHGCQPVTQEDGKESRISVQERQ

Binder	Mean [1]	Mean [2]	Mean [3]	Mean [4]	Kd [5]	% in upper right quadrant [6]	binding result (CD120a [7])	binding result (CD95 [8])	binding result (Hu_F36A)	binding result (Hu_F53A)	Kd [9]	NFκB luciferase reporter, 293T cells with mouse CD137: EC50 (read off the curve) [10]	Mean (CD120a [11])	Mean (CD95 [12])
B1	5980	7260	13200	6780	24.2 nM	42.4%								
B2							no binding (tested: 100 nM (text paragraph 226))	no binding (tested: 100 nM (text paragraph 226))	no binding	no binding	0.3 nM	~3 nM	8070	5370
